Measured values as given in patent US20200017598A1.

Biological target: mouse C5aR (mouse) (UniProt P30993)
Experiment: cell-based or functional assay

UniProt P30993, sequence (P30993 other isoform, or with tags, fused parts or gaps): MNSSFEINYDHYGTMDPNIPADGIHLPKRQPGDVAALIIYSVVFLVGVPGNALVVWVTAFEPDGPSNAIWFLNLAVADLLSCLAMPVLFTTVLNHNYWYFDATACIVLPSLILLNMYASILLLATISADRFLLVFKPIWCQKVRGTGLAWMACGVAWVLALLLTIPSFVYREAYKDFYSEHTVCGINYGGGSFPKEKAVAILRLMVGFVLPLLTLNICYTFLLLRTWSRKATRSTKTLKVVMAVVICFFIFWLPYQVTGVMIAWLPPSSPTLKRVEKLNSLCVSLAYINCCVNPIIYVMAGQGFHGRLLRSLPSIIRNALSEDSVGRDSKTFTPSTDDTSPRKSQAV

Question: Which inhibition of C5a-induced CD11b up-regulation on neutrophils (live Ly6G+ cells) in mouse whole blood stimulated with recombinant mouse C5a, flow cytometry does the source give for “Anti-mouse C5aR mAb m20/70 (20/70 variable regions on mouse kappa and mouse IgG2a.1 constant regions) (from UniProt P01863 1-330) (antibody)” here?
Answer: Its inhibition of C5a-induced CD11b up-regulation on neutrophils (live Ly6G+ cells) in mouse whole blood stimulated with recombinant mouse C5a, flow cytometry is 0.6 µg/mL.
